The target in assay [1] is C2 isoform of CD46 on CHO-C2 cells (human).
For assay [2] the target is unchanged. This is another data set of the same source.
Assay [3] has as its target integrins on CHO and CHO-C2 cells (Chinese hamster (endogenous in CHO)).
Assay [4] addresses adenovirus serotype 43 virions (human adenovirus serotype 43).
Assay [5] addresses adenovirus serotype 35 vector virions (human adenovirus serotype 35).

Bounds are passed on as bounds.

Chain of recombinant soluble human CD46 protein comprising the extracellular component of the receptor (P15529 35-343): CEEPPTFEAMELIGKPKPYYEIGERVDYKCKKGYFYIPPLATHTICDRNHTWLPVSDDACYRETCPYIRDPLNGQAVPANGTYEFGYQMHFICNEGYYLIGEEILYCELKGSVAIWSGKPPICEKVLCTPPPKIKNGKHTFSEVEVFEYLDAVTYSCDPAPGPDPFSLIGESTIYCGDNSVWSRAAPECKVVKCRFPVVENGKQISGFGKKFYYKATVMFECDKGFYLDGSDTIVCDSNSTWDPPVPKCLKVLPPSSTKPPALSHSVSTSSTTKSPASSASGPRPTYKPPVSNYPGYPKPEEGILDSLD

In assay [1], “recombinant Ad35 fiber knob domain (domain or fragment)” had an inhibition of Ad35TL transduction of CHO-C2 cells pre-incubated with the Ad35 knob (Fluc activity); the pair blocked is m4 with m6 of 90% and an inhibition of Ad43TL transduction of CHO-C2 cells pre-incubated with the Ad35 knob (Fluc activity); the pair blocked is m3 with m6 of 45%.

In assay [2], “recombinant Ad43 fiber knob protein (domain or fragment)” showed an inhibition of Ad43TL infection of CHO-C2 cells pre-incubated with the Ad43 knob at 100 μg/ml (no inhibition; the text prints 100 mg/ml) and 1 mg/ml; the pair blocked is m3 with m6 of 55%.

Regarding “adenovirus serotype 43 virions (complex)”, in assay [3], the inhibition of Ad43TL transduction of CHO and CHO-C2 cells pre-treated on ice with EDTA (10 mM), virus attached on ice was greater than 80%; the inhibition of Ad43TL transduction of CHO and CHO-C2 cells pre-treated on ice with the RGD-containing peptide GRGDSP (2 mg/ml), virus attached on ice is greater than 80%.

“recombinant soluble human CD46 protein comprising the extracellular component of the receptor (from UniProt P15529 35-343) (domain or fragment)” had an inhibition of CHO-C2 transduction by Ad43TL pre-incubated with sCD46 (Fluc activity); the pair blocked is m3 with m6 in assay [4] of 66%. In addition, the inhibition of CHO-C2 transduction by Ad35TL pre-incubated with sCD46 (Fluc activity); the pair blocked is m4 with m6 in assay [5] is 92%.

The record behind these values is PMC5288196.
